Data as given in publication PMC2873526.

What was measured:
histone H3 = histone H3 (UniProt P68432); test: fluorescence spectroscopy (acrylodan-labelled PfNapS titrated with histone); details: read off a plot
[1] = target: PfNapS residues 29-221 (crystallised construct) (Plasmodium falciparum); test: crystal structure; hanging drop vapour diffusion at 20°C, 0.2 M di-ammonium tartrate, 20% PEG 3350; space group P212121, three dimers in the asymmetric unit; Se-SAD at 3.2 Å, native data to 2.8 Å

| Substance | response (histone H3; Histone H3 5 microgram) | response (histone H3; Histone H3 10 microgram) | response (histone H3; Histone H3 15 microgram) | response (histone H3; Histone H3 20 microgram) | response (histone H3; Histone H3 25 microgram) | response (histone H3; Histone H3 30 microgram) | stoichiometry N [1] |
| --- | --- | --- | --- | --- | --- | --- | --- |
| PfNapS labelled with acrylodan (PfNapS^dye) C47A | 0.55 | 0.56 | 0.6 | 0.61 | 0.64 | 0.63 |  |
| PfNapS residues 29-221 (crystallised construct) (domain or fragment) |  |  |  |  |  |  | 2 |
